Test results published in US20250333514A1 (CDR LIFE, published 2025).
Changes are numbered by the printed parent chain.

B1: M3076 (bispecific antibody)
heavy: EVQLVESGGGLVQPGGSLRLSCAASGFTFSTYAMNWVRQAPGKGLEWVGRIRSKYNNYATYYADSVKGRFTISRDDSKNTLYLQMNSLRAEDTAVYYCVRHGNFGDSYVSWFAYWGQGTLVTVSSASTKGPSVFPLAPSSKSTSGGTAALGCLVKDYFPEPVTVSWNSGALTSGVHTFPAVLQSSGLYSLSSVVTVPSSSLGTQTYICNVNHKPSNTKVDKKVEPKSCGGGGSDIQMTQSPSSLSASVGDRVTITCRSSQSVYNNLLGWYQQKPGKAPKLLIYSASTLASGVPSRFSGSGSGTDFTLTISSLQPEDFATYYCQGTYYNGDWYYPFGCGTKVEIKGGGGSGGGGSGGGGSGGGGSQVQLVESGGGSVQPGRSLRLSCAASGFDFSTYGVSWVRQAPGKCLEWIGYIDPVYGSTHYADSVKGRFTISRDNSKNTLYLQMNSLRAEDTASYYCVRDLYAGSSGYYMIYSLWGQGTSVTVSS
light: QAVVTQEPSLTVSPGGTVTLTCGSSTGAVTTSNYANWVQQKPGKSPRGLIGGTNKRAPGVPARFSGSLLGGKAALTISGAQPEDEADYYCALWYSNHWVFGGGTKLTVLGQPKAAPSVTLFPPSSEELQANKATLVCLISDFYPGAVTVAWKADSSPVKAGVETTTPSKQSNNKYAASSYLSLTPEQWKSHRSYSCQVTHEGSTVEKTVAPTECS
notes: Humanized variant of M2638, monovalent Fab-scFv; bivalent equivalent is M3167
B2: M3287 (bispecific antibody)
heavy: B1 heavy with F317S, N328T, M473V
light: B1 light
notes: Humanized variant of M2638, monovalent Fab-scFv; bivalent equivalent is M3292

Experiments:
[1] = target: T1, HLA-A*02:01/PRAME antigen (recombinant, … on HLA-A*02:01) (human, Complex biotinylated for SPR capture; site of biotin and any tag not stated, not in the letters.); test: SPR (Biacore 8K), pMHC captured, Fab-scFv analyte
T1 construct: also called PRAME target; pMHC
Procedure: (§1) Recombinantly produced hits in Fab-scFv format, as described in Example 4, were evaluated for their ability to bind HLA-A*02:01/PRAME antigen. Binding characterization was performed by surface plasmon resonance (SPR) using a Biacore™ 8k (Cytiva) device. Briefly, 3000 RU of Biotin CAPture reagent (Cytiva) was immobilized on a Series S Sensor Chip CAP (Cytiva) and the biotinylated ligand HLA-A*02:01/PRAME (SEQ ID NO: 68) was diluted in HPS-EP+ running buffer (TEKNOVA) and captured for 300 s at a flow rate of 2 μL/min at flow cell 2 resulting in a ligand capture level of >100 RU. Subsequently, at least three consecutive analyte injections were performed at suitable concentrations applying the single-cycle-kinetics mode at a flow rate of 30 μL/min with an association time of 90 s and the dissociation time set to >400 s. The chip surface was regenerated according to the manufacturer's instructions. After reference flow cell signal and blank injections subtraction, the data was fit to a 1:1 Langmuir binding model to determine the association rate constant kₐ and dissociation rate constant kd and calculate the equilibrium dissociation constant KD (kd/kₐ), also denoted as affinity, using the Biacore™ Insight Evaluation software.
(§2) The molecular recognition profile of monovalent (Fab-scFv) antigen binding molecules M3076 and M3287 for HLA-A*02:01/PRAME binding (equivalent bivalent (Fab-(scFv)₂) antigen binding molecules are M3167 and M3292, respectively) were determined by SPR measurements with HLA-A*02:01 complexes loaded with PRAME peptide or peptides containing a single amino acid substitution to alanine, arginine or aspartic acid. The kinetic parameters for each HLA-A*02:01 complex loaded with a peptide was determined by SPR, according to the previously described method in Example 5.

[2] = target: HLA-A*02:01 loaded with PRAME peptide S1A (human, Complex captured as in Example 5 (biotinylated ligand); biotin site or tag not stated, not in the letters.); test: SPR (Biacore 8K), pMHC captured, Fab-scFv analyte
Procedure: as §1, §2

[3] = target: HLA-A*02:01 loaded with PRAME peptide L2A (human, Complex captured as in Example 5 (biotinylated ligand); biotin site or tag not stated, not in the letters.); test: SPR (Biacore 8K), pMHC captured, Fab-scFv analyte
Procedure: as §1, §2

[4] = target: HLA-A*02:01 loaded with PRAME peptide L3A (human, Complex captured as in Example 5 (biotinylated ligand); biotin site or tag not stated, not in the letters.); test: SPR (Biacore 8K), pMHC captured, Fab-scFv analyte
Procedure: as §1, §2

[5] = target: HLA-A*02:01 loaded with PRAME peptide Q4A (human, Complex captured as in Example 5 (biotinylated ligand); biotin site or tag not stated, not in the letters.); test: SPR (Biacore 8K), pMHC captured, Fab-scFv analyte
Procedure: as §1, §2

[6] = target: HLA-A*02:01 loaded with PRAME peptide H5A (human, Complex captured as in Example 5 (biotinylated ligand); biotin site or tag not stated, not in the letters.); test: SPR (Biacore 8K), pMHC captured, Fab-scFv analyte
Procedure: as §1, §2

[7] = target: HLA-A*02:01 loaded with PRAME peptide L6A (human, Complex captured as in Example 5 (biotinylated ligand); biotin site or tag not stated, not in the letters.); test: SPR (Biacore 8K), pMHC captured, Fab-scFv analyte
Procedure: as §1, §2

[8] = target: HLA-A*02:01 loaded with PRAME peptide I7A (human, Complex captured as in Example 5 (biotinylated ligand); biotin site or tag not stated, not in the letters.); test: SPR (Biacore 8K), pMHC captured, Fab-scFv analyte
Procedure: as §1, §2

[9] = target: HLA-A*02:01 loaded with PRAME peptide G8A (human, Non-covalent three-chain complex; biotinylated for capture on the chip, site or tag of biotinylation not stated.); test: SPR (Biacore 8K), pMHC captured, Fab-scFv analyte
Procedure: as §1, §2

[10] = target: HLA-A*02:01 loaded with PRAME peptide L9A (human, Non-covalent three-chain complex; biotinylated for capture on the chip, site or tag of biotinylation not stated.); test: SPR (Biacore 8K), pMHC captured, Fab-scFv analyte
Procedure: as §1, §2

[11] = target: T1, HLA-A*02:01/PRAME antigen (recombinant, …); test: SPR (Biacore 8K), pMHC captured, Fab-scFv analyte; remark: listed apart in the source
Procedure: as §1, §2

[12] = target: HLA-A*02:01 loaded with PRAME peptide L2D (human, pMHC ligand was biotinylated for capture (Example 5); site or tag of biotinylation not disclosed); test: SPR (Biacore 8K), pMHC captured, Fab-scFv analyte
Procedure: as §1, §2

[13] = target: HLA-A*02:01 loaded with PRAME peptide L3D (human, pMHC ligand was biotinylated for capture (Example 5); site or tag of biotinylation not disclosed); test: SPR (Biacore 8K), pMHC captured, Fab-scFv analyte
Procedure: as §1, §2

[14] = target: HLA-A*02:01 loaded with PRAME peptide H5D (human, pMHC ligand was biotinylated for capture (Example 5); site or tag of biotinylation not disclosed); test: SPR (Biacore 8K), pMHC captured, Fab-scFv analyte
Procedure: as §1, §2

[15] = target: HLA-A*02:01 loaded with PRAME peptide I7D (human, Complex was biotinylated for capture on the SPR chip; site or tag of biotinylation not disclosed and not in the letters.); test: SPR (Biacore 8K), pMHC captured, Fab-scFv analyte
Procedure: as §1, §2

[16] = target: HLA-A*02:01 loaded with PRAME peptide G8D (human, Complex was biotinylated for capture on the SPR chip; site or tag of biotinylation not disclosed and not in the letters.); test: SPR (Biacore 8K), pMHC captured, Fab-scFv analyte
Procedure: as §1, §2

[17] = target: T1, HLA-A*02:01/PRAME antigen (recombinant, …); test: SPR (Biacore 8K), biotinylated pMHC captured, Fab-scFv analyte, single-cycle kinetics, 1:1 fit
Procedure: as §1

Binder | Kd [1] [nM] | Kd [2] [nM] | Kd [3] [nM] | Kd [4] [nM] | Kd [5] [nM] | Kd [6] [nM] | Kd [7] [nM] | Kd [8] [nM] | Kd [9] [nM] | Kd [10] [nM] | Kd [11] [nM] | binding result [12] | Kd [13] [nM] | Kd [14] [nM] | binding result [15] | binding result [16] | Kd [17] [nM]
B1 | 0.08 | 0.09 | 0.07 | 0.19 | 0.18 | 3 | 15 | 31 | 0.77 | 1.7 | 0.08 | no binding | 0.09 | 0.44 | no binding | no binding | 0.07
B2 | 0.57 | 1.1 | 0.62 | 1.6 | 1.2 | 16 | 67 | 100 | 9.8 | 18 | 0.57 | no binding | 0.63 | 4.6 | no binding | no binding | 0.57
